Test results: patent publication US20160096882A1

How the values were obtained:
Test in all cases: cell-based or functional assay
[1] = molecular target: H5N1 Vietnam/1203/04 hemagglutinin (Influenza A virus H5N1 Vietnam/1203/04)
[2] = molecular target: H3N2 Wisconsin/67/05 hemagglutinin (Influenza A virus H3N2 Wisconsin/67/05)
[3] = molecular target: H1N1 New Caledonia/20/99 hemagglutinin (Influenza A virus H1N1 New Caledonia/20/99)

B1: 1286-A11 antibody (antibody, V domains shown)
VH: QVQLQQSGPRLVKPSQTLSLTCAISGDSVSGDSGTWNWIRQSPSRGLEWLGRTYYRSKWYNDYAESVKSRIVIKADTSKNEFSLQLNSVTPEDTAIYYCARAGVKIFGLIVGALDNWGRGTLVTVSS
VL: EIVMTQSPGTLSLSPGERATLSCRASQSVSSSYLAWYQQKPGQAPRLLIYGASTRATGVPDRFHGGGSGTDFTLTISRLEPEDFAVYYCQQYDTSSGLTFGGGTKVEIK
[1]
  Neutralization MIC: 333 µg/mL
[2]
  Neutralization MIC: > 333 µg/mL
[3]
  Neutralization MIC: 83 µg/mL
